Values quoted from earlier work as cited in publication PMC5221605.

How the values were obtained:
[1] = target: Fibrinogen Aα-chain 561-575 (Homo sapiens) (UniProt P02671)
[2] = target: Fibrinogen (Homo sapiens) (UniProt P02671)
Fibrin (Homo sapiens) = Fibrin (Homo sapiens) (UniProt P02671)

Chain of UniProt P02671 (P02671 36-866, chain 1 of 3): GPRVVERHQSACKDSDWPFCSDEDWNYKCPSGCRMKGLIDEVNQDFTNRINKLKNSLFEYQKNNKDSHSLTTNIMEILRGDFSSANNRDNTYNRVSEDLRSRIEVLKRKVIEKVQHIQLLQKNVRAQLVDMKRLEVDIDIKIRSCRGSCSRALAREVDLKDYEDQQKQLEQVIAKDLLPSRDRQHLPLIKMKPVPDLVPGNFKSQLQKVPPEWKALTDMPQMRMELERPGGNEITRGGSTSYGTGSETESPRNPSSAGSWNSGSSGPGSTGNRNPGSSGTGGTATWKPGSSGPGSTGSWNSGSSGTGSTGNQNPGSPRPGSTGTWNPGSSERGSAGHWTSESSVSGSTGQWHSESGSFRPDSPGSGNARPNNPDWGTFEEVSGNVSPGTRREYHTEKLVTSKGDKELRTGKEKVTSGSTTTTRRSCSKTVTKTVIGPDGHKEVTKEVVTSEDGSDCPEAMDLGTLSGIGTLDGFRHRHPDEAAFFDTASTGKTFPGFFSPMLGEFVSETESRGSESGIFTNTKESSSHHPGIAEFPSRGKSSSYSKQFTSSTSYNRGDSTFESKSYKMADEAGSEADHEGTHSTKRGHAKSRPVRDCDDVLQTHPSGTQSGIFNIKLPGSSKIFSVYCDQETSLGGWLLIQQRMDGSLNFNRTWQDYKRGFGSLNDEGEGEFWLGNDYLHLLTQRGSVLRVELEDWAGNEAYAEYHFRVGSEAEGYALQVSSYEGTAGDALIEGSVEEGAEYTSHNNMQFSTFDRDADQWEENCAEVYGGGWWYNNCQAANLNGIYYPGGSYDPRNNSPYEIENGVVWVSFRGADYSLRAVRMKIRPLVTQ
Chain of UniProt P02671 (P02675 45-491, chain 2 of 3, further chain): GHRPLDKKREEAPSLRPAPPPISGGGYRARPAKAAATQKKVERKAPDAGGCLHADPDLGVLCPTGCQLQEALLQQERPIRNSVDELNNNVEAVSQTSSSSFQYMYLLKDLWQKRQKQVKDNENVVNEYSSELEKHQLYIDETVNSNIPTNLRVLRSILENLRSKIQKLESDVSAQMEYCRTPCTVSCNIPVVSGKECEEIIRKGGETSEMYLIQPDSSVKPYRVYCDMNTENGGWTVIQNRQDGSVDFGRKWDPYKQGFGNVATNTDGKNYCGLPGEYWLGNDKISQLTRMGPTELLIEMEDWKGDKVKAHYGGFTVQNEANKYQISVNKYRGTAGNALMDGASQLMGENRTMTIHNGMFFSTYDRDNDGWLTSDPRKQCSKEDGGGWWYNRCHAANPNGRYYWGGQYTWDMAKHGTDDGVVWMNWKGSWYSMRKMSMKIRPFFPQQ
Chain of UniProt P02671 (P02679 27-453, chain 3 of 3, further chain): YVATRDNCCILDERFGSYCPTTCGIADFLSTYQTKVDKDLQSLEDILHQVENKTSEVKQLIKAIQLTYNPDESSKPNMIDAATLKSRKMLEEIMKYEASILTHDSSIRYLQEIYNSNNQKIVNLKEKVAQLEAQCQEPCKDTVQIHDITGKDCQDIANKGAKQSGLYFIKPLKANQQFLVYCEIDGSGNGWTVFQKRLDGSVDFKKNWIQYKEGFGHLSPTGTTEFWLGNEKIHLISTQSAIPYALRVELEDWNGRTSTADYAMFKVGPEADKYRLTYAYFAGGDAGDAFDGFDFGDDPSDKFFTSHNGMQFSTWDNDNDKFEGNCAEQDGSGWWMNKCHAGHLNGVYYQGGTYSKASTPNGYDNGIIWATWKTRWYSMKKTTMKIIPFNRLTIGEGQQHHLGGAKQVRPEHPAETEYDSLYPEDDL

Bbp N2-N3 (from UniProt Q6GJA6)
Kd [1]: 500 nM

ClfA (from UniProt Q2G015)
Kd [2]: 500 nM | Kd (Fibrin (Homo sapiens)): 500 nM
